Measurements taken from paper PMC10786891, “Massively parallel profiling of RNA-targeting CRISPR-Cas13d”.
Residue numbers refer to the chain shown, from its start.

T1: EsCas13d, nuclease-dead (Eubacterium siraeum, UniProt B0MS50, R295A;H300A;R849A;H854A)
T1 sequence: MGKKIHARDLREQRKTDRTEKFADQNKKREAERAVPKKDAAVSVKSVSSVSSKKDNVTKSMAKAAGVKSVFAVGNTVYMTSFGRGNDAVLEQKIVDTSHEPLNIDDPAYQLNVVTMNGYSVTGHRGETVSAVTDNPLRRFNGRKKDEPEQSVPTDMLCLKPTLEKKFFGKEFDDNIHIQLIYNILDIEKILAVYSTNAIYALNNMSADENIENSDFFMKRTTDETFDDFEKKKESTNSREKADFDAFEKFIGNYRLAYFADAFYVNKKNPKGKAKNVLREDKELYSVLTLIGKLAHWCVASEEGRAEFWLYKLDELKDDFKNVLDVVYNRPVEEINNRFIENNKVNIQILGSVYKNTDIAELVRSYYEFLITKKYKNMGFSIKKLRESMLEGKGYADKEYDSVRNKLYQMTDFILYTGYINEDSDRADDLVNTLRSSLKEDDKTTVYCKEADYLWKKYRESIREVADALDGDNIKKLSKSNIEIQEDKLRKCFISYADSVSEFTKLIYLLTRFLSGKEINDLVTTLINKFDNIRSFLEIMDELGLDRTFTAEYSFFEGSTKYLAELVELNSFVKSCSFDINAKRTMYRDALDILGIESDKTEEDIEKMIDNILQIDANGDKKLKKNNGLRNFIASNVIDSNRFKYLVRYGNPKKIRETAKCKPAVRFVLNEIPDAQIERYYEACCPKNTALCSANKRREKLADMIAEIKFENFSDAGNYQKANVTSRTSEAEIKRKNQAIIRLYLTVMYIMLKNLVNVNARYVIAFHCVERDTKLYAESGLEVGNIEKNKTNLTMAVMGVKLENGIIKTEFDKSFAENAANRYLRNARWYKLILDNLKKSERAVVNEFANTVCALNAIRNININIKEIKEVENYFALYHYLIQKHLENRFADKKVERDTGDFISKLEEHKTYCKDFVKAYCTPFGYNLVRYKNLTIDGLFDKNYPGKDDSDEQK

B1: target 2 MT 5'PFS UAA 3'PFS UAU (mixed)
RNA 1: CACCCGUGCAAAAUUGCAGGGGUCUAAAACCUUCUCCAAAUUGUUUCAUCCU
RNA 2: GGGAAUGGAUCCACAUCUACGAAUUCUAAAGGAUGAAACAAUUUGGAGAAGUAUAGAUCGGAAGAGCACACGU
B2: target 2 MT 5'PFS CUG 3'PFS UAC (mixed)
RNA 1: B1 RNA 1
RNA 2: B1 RNA 2 with U27C, A28U, A29G, U54C
B3: target 2 MT 5'PFS CGU 3'PFS CGC (mixed)
RNA 1: B1 RNA 1
RNA 2: B1 RNA 2 with U27C, A28G, A29U, U52C, A53G, U54C
B4: target 2 MT 5'PFS UGC 3'PFS CAC (mixed)
RNA 1: B1 RNA 1
RNA 2: B1 RNA 2 with A28G, A29C, U52C, U54C
B5: target 2 MT 5'PFS UAG 3'PFS UGU (mixed)
RNA 1: B1 RNA 1
RNA 2: B1 RNA 2 with A29G, A53G
B6: target 2 MT 5'PFS AUU 3'PFS AGC (mixed)
RNA 1: B1 RNA 1
RNA 2: B1 RNA 2 with U27A, A28U, A29U, U52A, A53G, U54C
B7: target 2 MT 5'PFS AUU 3'PFS AGG (mixed)
RNA 1: B1 RNA 1
RNA 2: B1 RNA 2 with U27A, A28U, A29U, U52A, A53G, U54G
B8: target 2 MT 5'PFS AGA 3'PFS UAU (mixed)
RNA 1: B1 RNA 1
RNA 2: B1 RNA 2 with U27A, A28G
B9: target 2 MT 5'PFS UUG 3'PFS UUC (mixed)
RNA 1: B1 RNA 1
RNA 2: B1 RNA 2 with A28U, A29G, A53U, U54C
B10: target 2 MT 5'PFS GGA 3'PFS ACC (mixed)
RNA 1: B1 RNA 1
RNA 2: B1 RNA 2 with U27G, A28G, U52A, A53C, U54C
B11: target 2 MT 5'PFS GGA 3'PFS ACG (mixed)
RNA 1: B1 RNA 1
RNA 2: B1 RNA 2 with U27G, A28G, U52A, A53C, U54G
B12: target 2 MT 5'PFS UAG 3'PFS UGC (mixed)
RNA 1: B1 RNA 1
RNA 2: B1 RNA 2 with A29G, A53G, U54C
B13: target 2 MT 5'PFS AGA 3'PFS CCA (mixed)
RNA 1: B1 RNA 1
RNA 2: B1 RNA 2 with U27A, A28G, U52C, A53C, U54A
B14: target 2 MT 5'PFS ACU 3'PFS AUC (mixed)
RNA 1: B1 RNA 1
RNA 2: B1 RNA 2 with U27A, A28C, A29U, U52A, A53U, U54C
B15: target 2 MT 5'PFS GCA 3'PFS AGG (mixed)
RNA 1: B1 RNA 1
RNA 2: B1 RNA 2 with U27G, A28C, U52A, A53G, U54G
B16: target 2 MT 5'PFS AGA 3'PFS CCG (mixed)
RNA 1: B1 RNA 1
RNA 2: B1 RNA 2 with U27A, A28G, U52C, A53C, U54G
B17: target 2 MT 5'PFS GGA 3'PFS ACA (mixed)
RNA 1: B1 RNA 1
RNA 2: B1 RNA 2 with U27G, A28G, U52A, A53C, U54A
B18: target 2 MT 5'PFS GAC 3'PFS UUC (mixed)
RNA 1: B1 RNA 1
RNA 2: B1 RNA 2 with U27G, A29C, A53U, U54C
B19: target 2 MT 5'PFS AGA 3'PFS UAC (mixed)
RNA 1: B1 RNA 1
RNA 2: B1 RNA 2 with U27A, A28G, U54C
B20: target 2 MT 5'PFS GGA 3'PFS ACU (mixed)
RNA 1: B1 RNA 1
RNA 2: B1 RNA 2 with U27G, A28G, U52A, A53C
B21: target 2 MT 5'PFS AAA 3'PFS AAC (mixed)
RNA 1: B1 RNA 1
RNA 2: B1 RNA 2 with U27A, U52A, U54C
B22: target 2 MT 5'PFS AUU 3'PFS AGA (mixed)
RNA 1: B1 RNA 1
RNA 2: B1 RNA 2 with U27A, A28U, A29U, U52A, A53G, U54A
B23: target 2 MT 5'PFS UUG 3'PFS CUC (mixed)
RNA 1: B1 RNA 1
RNA 2: B1 RNA 2 with A28U, A29G, U52C, A53U, U54C
B24: target 2 MT 5'PFS AAC 3'PFS UGU (mixed)
RNA 1: B1 RNA 1
RNA 2: B1 RNA 2 with U27A, A29C, A53G
B25: target 2 MT 5'PFS AUU 3'PFS CGA (mixed)
RNA 1: B1 RNA 1
RNA 2: B1 RNA 2 with U27A, A28U, A29U, U52C, A53G, U54A
B26: target 2 MT 5'PFS GAU 3'PFS UUC (mixed)
RNA 1: B1 RNA 1
RNA 2: B1 RNA 2 with U27G, A29U, A53U, U54C
B27: target 2 MT 5'PFS ACU 3'PFS AUU (mixed)
RNA 1: B1 RNA 1
RNA 2: B1 RNA 2 with U27A, A28C, A29U, U52A, A53U
B28: target 2 MT 5'PFS AAC 3'PFS CCA (mixed)
RNA 1: B1 RNA 1
RNA 2: B1 RNA 2 with U27A, A29C, U52C, A53C, U54A
B29: target 2 MT 5'PFS CAU 3'PFS ACU (mixed)
RNA 1: B1 RNA 1
RNA 2: B1 RNA 2 with U27C, A29U, U52A, A53C
B30: target 2 MT 5'PFS GAC 3'PFS UUG (mixed)
RNA 1: B1 RNA 1
RNA 2: B1 RNA 2 with U27G, A29C, A53U, U54G
B31: target 2 MT 5'PFS CUG 3'PFS UAG (mixed)
RNA 1: B1 RNA 1
RNA 2: B1 RNA 2 with U27C, A28U, A29G, U54G
B32: target 2 MT 5'PFS ACU 3'PFS AUG (mixed)
RNA 1: B1 RNA 1
RNA 2: B1 RNA 2 with U27A, A28C, A29U, U52A, A53U, U54G
B33: target 2 MT 5'PFS AUU 3'PFS CGG (mixed)
RNA 1: B1 RNA 1
RNA 2: B1 RNA 2 with U27A, A28U, A29U, U52C, A53G, U54G
B34: target 2 MT 5'PFS GAC 3'PFS UUA (mixed)
RNA 1: B1 RNA 1
RNA 2: B1 RNA 2 with U27G, A29C, A53U, U54A
B35: target 2 MT 5'PFS AUU 3'PFS AGU (mixed)
RNA 1: B1 RNA 1
RNA 2: B1 RNA 2 with U27A, A28U, A29U, U52A, A53G
B36: target 1 insC 3' of 9,insC 3' of 1 (mixed)
RNA 1: CACCCGUGCAAAAAUGCAGGGGUCUAAAACUGAGCGGAUAACCUCUCUAUGG
RNA 2: GGGAAUGGAUCCACAUCUACGAAUUCGUACCAUAGAGAGGUUACUCCGCUCACCCGAGAUCGGAAGAGCACACGU
B37: target 1 insU 3' of 5,insA 3' of 4 (mixed)
RNA 1: B36 RNA 1
RNA 2: B36 RNA 2 with C44U, U45C, C47G, G48U, U50A, C51U, A52C, C53A
B38: target 1 insU 3' of 18,insG 3' of 7 (mixed)
RNA 1: B36 RNA 1
RNA 2: GGGAAUGGAUCCACAUCUACGAAUUCGUACCAUAUGAGAGGUUAUCGCGCUCACCGAGAUCGGAAGAGCACACGU

What follows are binders tested against T1, EsCas13d, nuclease-dead (assay: crRNA (strand 1, pre-loaded); Mg2+; 40 mM Tris-HCl pH 7.5, 150 mM NaCl, 6 mM MgCl2, 1 mM DTT, 0.1% Tween-20, 0.2 mg/ml BSA; 25 C; 10 min per concentration, then washed). Details: tags: His6-TwinStrep-SUMO cleaved; N-terminal SNAP kept (SNAP-Surface 488); label: 3' end held by stalled T7 RNA polymerase.

Binder | Kd [nM]
B1 | 3.7 ± 1
B2 | 2.76 ± 0.35
B3 | 11.1 ± 1.7
B4 | 18 ± 4
B5 | 4.9 ± 0.5
B6 | 6.4 ± 0.8
B7 | 13 ± 2.9
B8 | 7.4 ± 1.4
B9 | 64 ± 20
B10 | 14.1 ± 2.6
B11 | 13.9 ± 1.4
B12 | 2.73 ± 0.25
B13 | ~24
B14 | 4.1 ± 0.4
B15 | 13.1 ± 1.8
B16 | 8.3 ± 1.1
B17 | 10.4 ± 1.2
B18 | 33 ± 12
B19 | 6.5 ± 1.1

Binder | Kd [nM]
B20 | 9.8 ± 0.7
B21 | 4.6 ± 0.7
B22 | 5.4 ± 0.8
B23 | 37 ± 8
B24 | 6.9 ± 1.2
B25 | 5.5 ± 0.4
B26 | 28 ± 7
B27 | 4.4 ± 0.6
B28 | 13 ± 4
B29 | 9 ± 1.9
B30 | 15 ± 4
B31 | 3.1 ± 0.5
B32 | 4.9 ± 0.6
B33 | 9.6 ± 1.7
B34 | 14.3 ± 3
B35 | 4.5 ± 0.4
B36 | 9.4 ± 0.6
B37 | 16.2 ± 1.2
B38 | 25.5 ± 1.2
